The text below walks through data of article PMC3711439, “Mechanisms of in vivo binding site selection of the hematopoietic master transcription factor PU.1”.

The labels stand for the following.
B1: PU.1 motif oligo 33 (dsDNA)
DNA 1: ACGTAACTTCCCCAATACGT
DNA 2: ACGTATTGGGGAAGTTACGT
B2: PU.1 motif oligo 53 (dsDNA)
DNA 1: ACGTCACTTCCATTCTACGT
DNA 2: ACGTAGAATGGAAGTGACGT
B3: PU.1 motif oligo 47 (dsDNA)
DNA 1: ACGTCGCTTCCTCCTCACGT
DNA 2: ACGTGAGGAGGAAGCGACGT
B4: PU.1 motif oligo 40 (dsDNA)
DNA 1: ACGTCAGTTCCTTAAAACGT
DNA 2: ACGTTTTAAGGAACTGACGT
B5: PU.1 motif oligo 51 (dsDNA)
DNA 1: ACGTCACTTCCTTGTCACGT
DNA 2: ACGTGACAAGGAAGTGACGT
B6: PU.1 motif oligo 41 (dsDNA)
DNA 1: ACGTCACTTCCTAAATACGT
DNA 2: ACGTATTTAGGAAGTGACGT
B7: PU.1 motif oligo 5 (dsDNA)
DNA 1: ACGTCACTTCCTCTCTACGT
DNA 2: ACGTAGAGAGGAAGTGACGT
B8: PU.1 motif oligo 17 (dsDNA)
DNA 1: ACGTCACTTCCTCCCTACGT
DNA 2: ACGTAGGGAGGAAGTGACGT
B9: PU.1 motif oligo 25 (dsDNA)
DNA 1: ACGTCACTTCCGCTTCACGT
DNA 2: ACGTGAAGCGGAAGTGACGT
B10: PU.1 motif oligo 23 (dsDNA)
DNA 1: ACGTCACTTCCCCAAAACGT
DNA 2: ACGTTTTGGGGAAGTGACGT
B11: PU.1 motif oligo 43 (dsDNA)
DNA 1: ACGTCACTTCCTCTGGACGT
DNA 2: ACGTCCAGAGGAAGTGACGT
B12: PU.1 motif oligo 3 (dsDNA)
DNA 1: ACGTCACTTCCCCTTTACGT
DNA 2: ACGTAAAGGGGAAGTGACGT
B13: PU.1 motif oligo 32 (dsDNA)
DNA 1: ACGTAACTTCCTCCTAACGT
DNA 2: ACGTTAGGAGGAAGTTACGT
B14: PU.1 motif oligo 1 (dsDNA)
DNA 1: ACGTCACTTCCTCTTTACGT
DNA 2: ACGTAAAGAGGAAGTGACGT
B15: PU.1 motif oligo 6 (dsDNA)
DNA 1: ACGTGACTTCCTCTTTACGT
DNA 2: ACGTAAAGAGGAAGTCACGT
B16: PU.1 motif oligo 12 (dsDNA)
DNA 1: ACGTCACTTCCTTTCTACGT
DNA 2: ACGTAGAAAGGAAGTGACGT
B17: PU.1 motif oligo 34 (dsDNA)
DNA 1: ACGTCACTTCCTCCCCACGT
DNA 2: ACGTGGGGAGGAAGTGACGT
B18: PU.1 motif oligo 11 (dsDNA)
DNA 1: ACGTCACTTCCTCAAAACGT
DNA 2: ACGTTTTGAGGAAGTGACGT
B19: PU.1 motif oligo 20 (dsDNA)
DNA 1: ACGTAACTTCCCCATTACGT
DNA 2: ACGTAATGGGGAAGTTACGT
B20: PU.1 motif oligo 30 (dsDNA)
DNA 1: ACGTCAGTTCCTGTTTACGT
DNA 2: ACGTAAACAGGAACTGACGT
B21: PU.1 motif oligo 2 (dsDNA)
DNA 1: ACGTCACTTCCTCATTACGT
DNA 2: ACGTAATGAGGAAGTGACGT
B22: PU.1 motif oligo 56 (dsDNA)
DNA 1: ACGTCGTTTCCTCTTTACGT
DNA 2: ACGTAAAGAGGAAACGACGT
B23: PU.1 motif oligo 15 (dsDNA)
DNA 1: ACGTGACTTCCTCTCTACGT
DNA 2: ACGTAGAGAGGAAGTCACGT
B24: PU.1 motif oligo 46 (dsDNA)
DNA 1: ACGTCACTTCCTCCAGACGT
DNA 2: ACGTCTGGAGGAAGTGACGT
B25: PU.1 motif oligo 39 (dsDNA)
DNA 1: ACGTCGCTTCCTCTCCACGT
DNA 2: ACGTGGAGAGGAAGCGACGT
B26: PU.1 motif oligo 45 (dsDNA)
DNA 1: ACGTCATTTCCTCCTTACGT
DNA 2: ACGTAAGGAGGAAATGACGT
B27: PU.1 motif oligo 35 (dsDNA)
DNA 1: ACGTTGCTTCCTCTTTACGT
DNA 2: ACGTAAAGAGGAAGCAACGT
B28: PU.1 motif oligo 14 (dsDNA)
DNA 1: ACGTCACTTCCTCTGTACGT
DNA 2: ACGTACAGAGGAAGTGACGT
B29: PU.1 motif oligo 52 (dsDNA)
DNA 1: ACGTGCCTTCCTCTTTACGT
DNA 2: ACGTAAAGAGGAAGGCACGT
B30: PU.1 motif oligo 28 (dsDNA)
DNA 1: ACGTTACTTCCTTTTAACGT
DNA 2: ACGTTAAAAGGAAGTAACGT
B31: PU.1 motif oligo 13 (dsDNA)
DNA 1: ACGTCACTTCCTCTACACGT
DNA 2: ACGTGTAGAGGAAGTGACGT
B32: PU.1 motif oligo 44 (dsDNA)
DNA 1: ACGTCACTTCTCTTTTACGT
DNA 2: ACGTAAAAGAGAAGTGACGT
B33: PU.1 motif oligo 54 (dsDNA)
DNA 1: ACGTCTCTTCCTTTCTACGT
DNA 2: ACGTAGAAAGGAAGAGACGT
B34: PU.1 motif oligo 19 (dsDNA)
DNA 1: ACGTCAGTTCCTCTTCACGT
DNA 2: ACGTGAAGAGGAACTGACGT
B35: PU.1 motif oligo 21 (dsDNA)
DNA 1: ACGTGAGTTCCTCTTTACGT
DNA 2: ACGTAAAGAGGAACTCACGT
B36: PU.1 motif oligo 57 (dsDNA)
DNA 1: ACGTGAGTTCCTTTAAACGT
DNA 2: ACGTTTAAAGGAACTCACGT
B37: PU.1 motif oligo 18 (dsDNA)
DNA 1: ACGTCACTTCCTCAACACGT
DNA 2: ACGTGTTGAGGAAGTGACGT
B38: PU.1 motif oligo 27 (dsDNA)
DNA 1: ACGTCTCTTCCTCTTTACGT
DNA 2: ACGTAAAGAGGAAGAGACGT
B39: PU.1 motif oligo 36 (dsDNA)
DNA 1: ACGTCCCTTCCTCTTTACGT
DNA 2: ACGTAAAGAGGAAGGGACGT
B40: PU.1 motif oligo 48 (dsDNA)
DNA 1: ACGTCACTTCTGCTTTACGT
DNA 2: ACGTAAAGCAGAAGTGACGT
B41: PU.1 motif oligo 4 (dsDNA)
DNA 1: ACGTCACTTCCTCTATACGT
DNA 2: ACGTATAGAGGAAGTGACGT
B42: PU.1 motif oligo 29 (dsDNA)
DNA 1: ACGTGACTTCCTGTTTACGT
DNA 2: ACGTAAACAGGAAGTCACGT
B43: PU.1 motif oligo 31 (dsDNA)
DNA 1: ACGTCAGTTCCTCAAAACGT
DNA 2: ACGTTTTGAGGAACTGACGT
B44: PU.1 motif oligo 22 (dsDNA)
DNA 1: ACGTGACTTCCTCATCACGT
DNA 2: ACGTGATGAGGAAGTCACGT
B45: PU.1 motif oligo 37 (dsDNA)
DNA 1: ACGTCACTTCCTGCTAACGT
DNA 2: ACGTTAGCAGGAAGTGACGT
B46: PU.1 motif oligo 38 (dsDNA)
DNA 1: ACGTCGCTTCCCCTTCACGT
DNA 2: ACGTGAAGGGGAAGCGACGT
B47: PU.1 motif oligo 50 (dsDNA)
DNA 1: ACGTCTCTTCCCCTCTACGT
DNA 2: ACGTAGAGGGGAAGAGACGT
B48: PU.1 motif oligo 26 (dsDNA)
DNA 1: ACGTAAGTTCCTCATTACGT
DNA 2: ACGTAATGAGGAACTTACGT
B49: PU.1 motif oligo 55 (dsDNA)
DNA 1: ACGTCACTTCCCTCCCACGT
DNA 2: ACGTGGGAGGGAAGTGACGT
B50: PU.1 motif oligo 42 (dsDNA)
DNA 1: ACGTCACTTCCGCCTCACGT
DNA 2: ACGTGAGGCGGAAGTGACGT
B51: PU.1 motif oligo 16 (dsDNA)
DNA 1: ACGTAACTTCCTCATAACGT
DNA 2: ACGTTATGAGGAAGTTACGT
B52: PU.1 motif oligo 24 (dsDNA)
DNA 1: ACGTAACTTCCTCAATACGT
DNA 2: ACGTATTGAGGAAGTTACGT
B53: PU.1 motif oligo 49 (dsDNA)
DNA 1: ACGTCAGTTCCTCCTGACGT
DNA 2: ACGTCAGGAGGAACTGACGT

In this data set the target is PU.1 (human, UniProt P17947 1-270). Briefly: MST; MST: 20 mM Tris-HCl pH 7.6, 1.5 mM MgCl2, 0.5 mM EGTA, 10% glycerol, 300 mM KCl, 10 mM DTT, 25 C; 50 nM Cy3-dsDNA, PU.1 1:1 dilutions from 23 uM. The conditions noted are these: protein: recombinant; tags: N-terminal His-tag; label: Cy3 on upper strand.
By Kd is commonly meant the free concentration of one partner at which half of the binding sites on the other are occupied at equilibrium, for simple one-to-one binding. Regarding B1, the dissociation constant Kd was determined as 611 ± 58 nM. In the case of B2, the dissociation constant Kd came to 4600 ± 2570 nM. Take B3: the Kd came to 757 ± 186 nM. To B4 belongs 808 ± 97 nM; to B5, 786 ± 41 nM. B6: the dissociation constant Kd amounted to 620 ± 147 nM.

As for B7, the Kd stood at 270 ± 23 nM.

With B8, the Kd worked out at 470 ± 26 nM. For the molecule B9, the Kd amounted to 613 ± 70 nM. For B10, the Kd came to 362 ± 103 nM.

B11: the Kd was 822 ± 289 nM. With B12, the dissociation constant (Kd) came to 454 ± 61 nM. Regarding B13, the Kd is 464 ± 77 nM. B14: the Kd was determined as 164 ± 17 nM.

On to B15, for which the Kd came to 190 ± 31 nM.

On to B16, for which the Kd is 588 ± 95 nM. The same measure for B17: 690 ± 134 nM; for B18: 242 ± 5 nM. As to B19, the dissociation constant (Kd) turned out to be 234 ± 21 nM.

B20: the Kd stood at 558 ± 77 nM. In the case of B21, the dissociation constant Kd was 272 ± 36 nM. Turning to B22, the Kd is 670 ± 145 nM.

For B23, the Kd is 324 ± 45 nM. The same measure for B24: 634 ± 12 nM; for B25: 983 ± 94 nM.

As to B26, the Kd came to 828 ± 8 nM. For the molecule B27, the Kd worked out at 414 ± 92 nM.

As for B28, the Kd is 658 ± 267 nM. As for B29, the Kd worked out at 887 ± 104 nM. Take B30: the Kd worked out at 422 ± 29 nM. To B31 belongs 568 ± 283 nM; to B32, 770 ± 174 nM.

For B33, the Kd worked out at 1700 ± 440 nM. On to B34, for which the Kd was 596 ± 7 nM.

As for B35, the dissociation constant (Kd) turned out to be 298 ± 15 nM.

With B36, the Kd was found to be 1660 ± 170 nM.

Take B37: the dissociation constant (Kd) turned out to be 452 ± 107 nM. The same measure for B38: 719 ± 116 nM.

In the case of B39, the Kd stood at 682 ± 71 nM.

For B40, the Kd was determined as 600 ± 7 nM. For the molecule B41, the equilibrium dissociation constant (Kd) turned out to be 413 ± 84 nM. For B42, the Kd was found to be 361 ± 54 nM. For B43, the Kd was 599 ± 142 nM. With B44, the Kd came out at 532 ± 11 nM. B45: the dissociation constant (Kd) worked out at 794 ± 112 nM. The same measure for B46: 893 ± 116 nM; for B47: 2120 ± 890 nM. For the molecule B48, the dissociation constant Kd came to 490 ± 141 nM. As for B49, the dissociation constant Kd stood at 1010 ± 192 nM. Take B50: the dissociation constant (Kd) was determined as 656 ± 191 nM. Turning to B51, the Kd is 444 ± 55 nM. For the molecule B52, the Kd amounted to 462 ± 77 nM. Take B53: the Kd turned out to be 929 ± 222 nM.
